B1: Pt73Y: glycosyltransferase enzyme from Populus trichocarpa (SEQ ID NO. 64, 66) (protein, listed as Populus trichocarpa)
chain: MGSLGHQLHIFFLPFFAHGHMIPSVDMAKLFASRGIKTTIITTPLNAPFFSKTIQKTKELGFDINILTIKFPAAEAGLPEGYENTDAFIFSENAREMTIKFIKATTFLQAPFEKVLQECHPDCIVADVFFPWATDAAAKFGIPRLVFHGTSNFALSASECVRLYEPHKKVSSDSEPFVVPDLPGDIKLTKKQLPDDVRENVENDFSKFLKASKEAELRSFGVVVNSFYELEPAYADYYKKVLGRRAWNVGPVSLCNRDTEDKAGRGKETSIDHHECLKWLDSKKPNSVVYICFGSTTNFSDSQLKEIAAGLEASGQQFIWVVRRNKKGQEDKEDWLPEGFEERMEGVGLIIRGWAPQVLILDHEAIGAFVTHCGWNSTLEGITAGKPMVTWPIFAEQFYNEKLVTDVLKTGVGVGVKEWFRVHGDHVKSEAVEKTITQIMVGEEAEEMRSRAKKLGETARKAVEEGGSSYSDFNALIEELRWRRP
B2: Bs109A1: glycosyltransferase from Bacillus subtilis (SEQ ID NO: 70) (protein, listed as Bacillus subtilis)
chain: MKKHHISMINIPAYGHVNPTLALVEKLCEKGHRVTYATTEEFAPAVQQAGGEALIYHTSLNIDPKQIREMMEKNDATLSLLKESLSILPQLEELYKDDQPDLIIYDFVALAGKLFADKLNVPVIKLCSSYAQNESFQLGNEDMLKKIKEAEAEFKAYLEQEQLPAVSFEQLAVPEALNIVFMPKSFQIQHETFDDRFCFVGPSLGKRTEQESLLIDKGDRPLMLISLGTAFNAWPEFYKMCIDAFRDSSWQVIMSVGKSIDPESLDDTPANFTIRQSVPQLEVLAKADLFISHGGMNSTMEAMNAGVPLVVIPQMYEQELTAKRVDELGLGVYLQREEVTVSKLQEAVQAVSGDQELLSRVKSMQKDVKEAGGAERAAAEIEAFMKKSAVPQ
B3: Bs109_1: glycosyltransferase from Bacillus subtilis (SEQ ID NO: 68) (protein, listed as Bacillus subtilis)
chain: MKKYHISMINIPAYGHVNPTLALVEKLCEKGHRVTYATTEEFAPAVQQAGGEALLYHTSLNIDPKQIREMMEKNDAPLSLLKESLSILPQLEELYKDDQPDLIIYDFVALAGKLFAEKLNVPVIKLCSSYAQNESFQLGNEDMLKKIREAEAEFKAYLEQEKLPAVSFEQLAVPEALNIVFMPKSFQIQHETFDDRFCFVGPSLGERKEKESLLIEKDDRPLMLISLGTAFNAWPEFYKMCIKAFRDSSWQVIMSVGKAIDPESLEDIPANFTIRQSVPQLEVLEKADLFISHGGMNSTMEAMNAGVPLVVIPQMYEQELTANRVDELGLGVYLPKEEVTVSSLQEAVQAVSSDQELLSRVKNMQKDVKEAGGAERAAAEIEAFMKKSAVPQ
B4: Cp73B: glycosyltransferase from Carica papaya (SEQ ID NO: 72) (protein, listed as Carica papaya)
chain: MGSEVLHHDYSQLNIFFFPFMAHGHMIPTLDMAKLFATHGAKTSIITTPLNLPFFSKSIERFSKQTGLEIGVKLLNFPSVEVGLPSGCENADSLPAGEPLIVNKFFAAAGMLKDPLERLLQEFKPDCLIADMFFPWTTDAAAKFDIPRLVFHGTSFFALSASECIRLYTPFNNVSSDSEPFLVPTLPDEIRLTRNQLADFAMKEGDENGIHRLIKEAKESELKSYGVVVNSFYELEPAYADHYRNFLKRKAWHIGPVSLCNKTVEDKAERGKRASIDEDECLKWLNSKAPNSVIYICFGSMANFNSAQLMEIATALDASGQEFIWVVRREKNENNQEDWLPEGFEQRTEGKGLIIRGWAPQVLILEHEAVGGFVTHCGWNSTLEGVTAGMPMVTWPVSAEQFYNEKLVTEVLKIGLSVGVKKWVRSEGDFVSREKVEQAVREIMVGSEAVERRMRAKAMADMARAAVEKGGSSYNDLNALLREVSLMRRQQSQNQ

Legend:
[1] = In vitro glycosylation of violacein by purified UGT enzymes (% conversion); type: biochemical; settings: for Product % production: Di-glucoside / Product % production: Mono-glucoside / Product % production: Penta-glucoside / Product % production: Tetra-glucoside / Product % production: Total conversion / Product % production: Tri-glucoside: 350 μM violacein, 24 h incubation at 30° c.
Method: (§1) Glycosyltransferase (UGT) enzymes were produced and purified as follows. 5 mL of 2× concentrated LB medium+appropriate antibiotic (50 μg/mL) was inoculated with E. coli XJb (DE3) strains expressing a plasmid of interest and incubated overnight at 30° C. with shaking. The following day, 50 ml TB medium+antibiotic in 250 ml baffled flasks was inoculated with 0.5 mL overnight cell culture and incubated for 3.5 hrs at 30° C. The cell cultures were then induced with 3 mM arabinose, 0.1 mM IPTG and Incubated for 24 h at 25° C., with shaking. The following day, the cells were collected by centrifugation at 6500×g for 10 mins at 4° C. Cells were resuspended in 5 mL ice-cold protein extraction buffer (50 mM Tris-HCl pH7.4+1 mM phenylmethanesulfonyl fluoride+1 cOmplete™, mini, EDTA-free Protease Inhibitor Cocktail tablet (Roche). The resuspended material was transferred to five 1.5 mL eppendorf tubes and kept at −80° C. for at least 15 mins. The tubes were then thawed at room temperature, as the tubes were thawing the following reagents were added; 2.6 mM MgCl2, 1 mM CaCl2, 300 U/mL DNase solution (DENARASE®, C-lecta) and 0.2 mg/mL lysozyme (Sigma) dissolved in MilliQwater. Tubes were gently inverted to mix then were incubated for 10-15 mins at 37° C. […] of 4× Binding buffer was then added to the tubes (to final concentration of 50 mM Tris-HCl pH7.4, 10 mM imidazole, 500 mM NaCl and the pH adjusted to 7.4 with HCl). The mix was centrifuged at 10000×g for 30 mins at 4° C., the supernatant transferred to a fresh eppendorf tubes and centrifuged again to remove any remaining cellular debris at 10000×g for 30 minutes at 4° C. While the enzyme prep was centrifuging, HisPur 0.2 ml spin column (Thermo Scientific) are prepared as instructed by manufacturer. HisPur column was washed with MilliQ water and equilibrated with two resin-bed volumes of 1×his-binding buffer two times. HisPur column was centrifuged at 700×g for 2 minutes to remove buffer. 600 μL of collected supernatant from the centrifuged enzyme preparation was transferred to the HisPur column and then incubated at 4° C. with gentle shaking by inversion for 30 minutes. After 30 minutes, the unbound protein was removed by centrifugation 700×g for 2 min. The remaining 600 μL of collected supernatant from the centrifuged enzyme preparation was loaded to the HisPur column and incubated again at 4° C. with shaking. Unspecific binding of other proteins was removed by washing twice with 1× binding buffer (50 mM Tris-HCl, 0.5M NaCl, 10 mM Imidazole, pH 7.4). Enzyme was resuspended in 200 μl elution buffer for 2 minutes before elution by centrifugation (700×g for 2 minutes at 4° C.). Enzymes were used immediately in in vitro enzyme assays or stored at −20° C. in 50% glycerol until needed.
(§2) For in vitro studies of glycosyl transferase performance in glycosylating violacein and violacein derivatives, purified glycosyl transferases were prepared as described in Example 4 and in vitro enzyme assays run as described below in Table 19.
(§3) The reaction mixture was scaled up or down as required. The reaction mixture was incubated without shaking at 30° C. for 24 hours. Extraction and analysis were performed as described in Examples 3 and 5. To confirm the identity of the produced glycosides LC-MS/QTOF was used as described above to confirm the expected mass and fragmentation pattern of each detected molecule. Quantification of violacein glycoside or other violacein derivative glycoside production was done by comparing the peak area of the substrate and the produced glycoside with authentic analytical standards (where available), where a standard was unavailable, quantification was achieved by comparing with an authentic analytical standard of the substrate. % Conversion of a substrate to a glycoside by specific Glycosyl transferases was calculated by measuring the decrease in substrate and increase in product after 24 h incubation. […]

[2] = In vitro glycosylation of proviolacein by purified UGT enzymes (% conversion); type: biochemical; settings: 350 μM proviolacein, 24 h incubation at 30° c.
Method: as §1, §2, §3

Row | Molecule | Product % production: Di-glucoside [1] [%] | Product % production: Mono-glucoside [1] [%] | Product % production: Penta-glucoside [1] [%] | Product % production: Tetra-glucoside [1] [%] | Product % production: Total conversion [1] [%] | Product % production: Tri-glucoside [1] [%] | reduction in violacein concentration compared to the no-enzyme control ([1]; 24 h incubation at 30° C., HPLC) [%] | Product % production: Di-glucoside [2] [%] | Product % production: Mono-glucoside [2] [%] | Product % production: Penta-glucoside [2] [%] | Product % production: Tetra-glucoside [2] [%] | Product % production: Total conversion [2] [%] | Product % production: Tri-glucoside [2] [%]
1 | B1 | 8.95 | 8.69 | 10.98 | 10.31 | 54.41 | 15.47 | 75 | 0.15 | 0.12 | 0.78 | 1.22 | 3.4 | 1.13
2 | B2 | 10.57 | 11.05 | 11.46 | 14.10 | 62.47 | 15.29 | – | 1.45 | 2.45 | 2.11 | 1.98 | 10.11 | 2.12
3 | B3 | – | 9.02 | – | 11.12 | 30.93 | 10.80 | – | – | 2.12 | – | 3.34 | 6.69 | 1.23
4 | B4 | – | 25.65 | – | – | 25.65 | – | – | – | 8.12 | – | – | 8.12 | –
